According to patent US12583913B2, “Antibody specific to Staphylococcus aureus, therapeutic method and detection method using same” (priority 2019, dated 2026):

B1: GMA-2105 F(ab): fragment antigen-binding fragment of GMA-2105 (antibody, V domains shown)
VH: EVKLEESGGGLVQPGGSMKLSCAASGFTFSDAWMDWVRQSPEKGLEWVAEIRTKANNHATYYAESVKGRFTISRDDSKSSVYLQMNSLRAEDTGIYYCTNVYYGNNDVKDYWGQGTSVTVSPAS
VL: DIVMTQSQKFMSTSVGDRVSVTCKASQNVDIYVAWYQQKPGQSPKALIYSASYRFSGVPDRFTGSGSGTDFTLSISNVQSEDLAEYFCQQYNNYPYTFGGGTKLEIKRADAAPTVSIFPPSSEGRI
B2: chimeric GMA-2105 (antibody, V domains shown)
VH: B1 VH
VL: B1 VL
B3: GMA-2105: inhibitory mouse anti-staphylocoagulase monoclonal antibody raised against peptide […]; VH SEQ ID NO 6, VL SEQ ID NO 8 (protein)
chain 1: B1 VH
chain 2: B1 VL

How the values were obtained:
GMA-2105 = experiment: Solid phase competitive inhibition ELISA with variant staphylocoagulase peptides; type: binding; conditions: peptide incubated with GMA-2105 in solution overnight at 4 degrees C
Source text: There are reported strain specific sequence differences at residue positions 8 and 9 of staphylocoagulase (SEQ ID. No.: 2). […] Wantabe, et al., Genetic Diversity of Staphylocoagulase Genes (coa): Insight into the evolution of variable chromosomal virulence factors in Staphylococcus aureus. PLoS ONE 2009; 4(5): 1-11, incorporated herein by reference in its entirety. […] 9 (“Mutated Peptide Ala 8”), position 9 of SEQ ID NO. 9 (“Mutated Peptide Ala 9”), and position 8 and 9 of SEQ ID NO.: 9 (“Mutated Peptide Ala 8 & 9”) (see FIG. 13). We measured the binding of each synthetic peptide (Mutated Peptide Ala 8, Mutated Peptide Ala 9, and Mutated Peptide Ala 8 & 9) to GMA-2105 in solution.
We tested binding of Mutated Peptide Ala 8, Mutated Peptide Ala 9, and Mutated Peptide Ala 8 & 9 to GMA-2105 in a solid phase competitive inhibition assay. GMA-2105 was incubated with increasing concentrations of each of Mutated Peptide Ala 8, Mutated Peptide Ala 9, and Mutated Peptide Ala 8 & 9 (referred to hereafter as “GMA-2105—Mutated Peptide samples”) in solution overnight at 4 degrees C. The incubation was followed by transfer of the GMA-2105—Mutated Peptide samples to wells coated with the non-mutated peptide, […] (SEQ ID. No.: 9) and blocked with 0.1% BSA PBS. After a 30-minute incubation, wells were washed with PBS containing 0.05% TWEEN 20, followed by addition of goat anti-mouse secondary antibody conjugated to horseradish peroxidase. Substrate ortho-phenylenediamine conversion to product was measured at 490 nm using a spectrophotometer. The negative control as was a purified irrelevant synthetic peptide.

staphylocoagulase = experiment: Western blot detection of staphylocoagulase in cultured bacteria supernatants; type: binding; conditions: supernatants of S. aureus strains COL and MW2 (MRSA)
Source text: Lanes A, B, and C contain concentrated (10×) supernatants from identically cultured bacteria. Lane A: S. saprophyticus (coagulase negative bacterium control); Lane B: S. aureus strain COL (MRSA); Lane C: S. aureus strain MW2 (MRSA); Lane D: media blank; Lane E: staphylocoagulase peptide conjugated to ovalbumin (SEQ ID NO.: 9).

[1] = target: T1, staphylocoagulase peptide SC(1-10) […] (SEQ ID NO: 9) (Staphylococcus aureus, UniProt P17855); experiment: Solid-phase ELISA on staphylocoagulase peptide; type: binding, S. aureus
T1 construct: made in house; host or cells: chemical synthesis
Experimental: Two additional 50 μg injections (peptide-KLH conjugate in incomplete Freunds adjuvant) were given on days 61 and 111. A serum sample from each mouse was collected on Day 122 and the antibody titer measured by solid-phase Enzyme Linked Immunosorbant Assay (ELISA) using the staphylocoagulase and/or vWbp peptide conjugated to ovalbumin coated on 96-well ELISA plates at 2 ug/ml. Uncoated areas of the wells were blocked with albumin from bovine serum (BSA). The wells were then incubated with dilutions of the mouse serum to test whether the serum contained antibodies to the staphylocoagulase and/or vWbp peptide. Bound antibodies were detected with anti-mouse IgG secondary antibody conjugated to horseradish peroxidase. The plates were then incubated with o-phenylenediamine (OPD) substrate which undergoes a color change in the presence of HRP the intensity of which can be measured using absorption at 490 nm wavelength in a microplate reader. […]
Purified chimeric GMA-2105 and murine GMA-2105 antibody were tested against staphylocoagulase peptide […] […] Antibody-antigen complex was detected using a goat anti-mouse secondary antibody conjugated to horseradish peroxidase or goat anti-human secondary antibody conjugated to horseradish peroxidase. Substrate ortho-phenylene diamine conversion to product was measured at 490 nm using a spectrophotometer

[2] = target: T2, BODIPY-labeled staphylocoagulase SC (S7C) (1-325) (Staphylococcus aureus, UniProt P17855, S33C); experiment: Equilibrium binding of BODIPY-labeled staphylocoagulase, fluorescence titration in solution; parameters: species or system S. aureus
T2 construct: BODIPY fluorophore (chemical label)
Experimental: In solution, the antibody bound Ser 7 to Cys mutant of SC(1-325). Binding studies were done using the BODIPY-labeled staphylocoagulase SC (S7C) (1-325) (SEQ ID NO.: 2, positions 1-325 with Cys at position 7). The change of fluorescence upon antibody binding is measured as a function of the unlabeled ligand concentration and fitting the data to the quadratic binding equation gives the dissociation constant (KD), and the stoichiometry (n). Panizzi, et al., Fibrinogen substrate recognition by staphylocoagulase-(pro)thrombin complexes, J. Biol. Chem. 2006; 281:118-95.
Direct binding of BODIPY-SC(S7C) at 27 nM (●) and 130 nM (∘) probe titrated with GMA-2105 caused fluorescence increase, whereas unlabeled SC(1-246) (triangles) displaced BODIPY-SC(S7C) labeled staphylocoagulase from binding the antibody. Simultaneous fit of all datasets provide the Kd for the unmodified competitor to the antibody.
Concentrations were: BODIPY-staphylocoagulase (1-325) at 27 nM (●) and 130 nM (∘) titrated with GMA-2105 and unlabeled staphylocoagulase (1-246)(residues 1-246 of SEQ ID No. 2).
In FIG. 29, BODIPY®-labeled staphylocoagulase fragment (1-325) at 27 nM (●) and 130 nM (∘) titrated with chimeric GMA-2105 in solution in the presence of unlabeled staphylocoagulase fragment (1-246) (▴).

SC(1-246)●prothrombin^3Q = SC(1-246)●prothrombin^3Q (Staphylococcus aureus, UniProt P17855); experiment: Inhibition of prothrombin^3Q activation by SC(1-246), S2238 hydrolysis; type: biochemical, S. aureus; conditions: read-out: affinity of inhibition of prothrombin^3Q activation by SC(1-246); prothrombin 1 nM, SC(1-246) 5.6 nM and 28 nM

Row | Molecule | inhibition of GMA-2105 binding to wells coated with […] (GMA-2105) | binding to staphylocoagulase peptide in ELISA [1] | further results
1 | Mutated Peptide Ala 8 & 9: synthetic peptide with alanine substitutions at positions 8 and 9 of SEQ ID NO. 9 (IVTKDYSAAS) | inhibited binding of antibody |  | 
2 | Mutated Peptide Ala 8: synthetic peptide with alanine substitution at position 8 of SEQ ID NO. 9 (IVTKDYSAES) | inhibited binding of antibody |  | 
3 | Mutated Peptide Ala 9: synthetic peptide with alanine substitution at position 9 of SEQ ID NO. 9 (IVTKDYSKAS) | inhibited binding of antibody |  | 
4 | B1 |  | capable of binding | binding of staphylocoagulase in cultured bacteria, Western blot (staphylocoagulase): bind staphylocoagulase
5 | B2 |  | binding | binding characteristics compared with murine GMA-2105 ([2]; FIG. 30): essentially identical; stoichiometry ([2]; chimeric antibody): 2 mol staphylocoagulase/mol chimeric antibody
6 | B3 |  |  | Kd (SC(1-246)●prothrombin^3Q): 0.9 nM
